Reference: paper PMC4117486, “Investigation of Endoglin Wild-Type and Missense Mutant Protein Heterodimerisation Using Fluorescence Microscopy Based IF, BiFC and FRET Analyses” (PLoS ONE, 2014)

B1: endoglin wild-type, EYFP- or ECFP-tagged (receptor, human, UniProt P17813 26-658, looked up)
chain: ETVHCDLQPVGPERGEVTYTTSQVSKGCVAQAPNAILEVHVLFLEFPTGPSQLELTLQASKQNGTWPREVLLVLSVNSSVFLHLQALGIPLHLAYNSSLVTFQEPPGVNTTELPSFPKTQILEWAAERGPITSAAELNDPQSILLRLGQAQGSLSFCMLEASQDMGRTLEWRPRTPALVRGCHLEGVAGHKEAHILRVLPGHSAGPRTVTVKVELSCAPGDLDAVLILQGPPYVSWLIDANHNMQIWTTGEYSFKIFPEKNIRGFKLPDTPQGLLGEARMLNASIVASFVELPLASIVSLHASSCGGRLQTSPAPIQTTPPKDTCSPELLMSLIQTKCADDAMTLVLKKELVAHLKCTITGLTFWDPSCEAEDRGDKFVLRSAYSSCGMQVSASMISNEAVVNILSSSSPQRKKVHCLNMDSLSFQLGLYLSPHFLQASNTIEPGQQSFVQVRVSPSVSEFLLQLDSCHLDLGPEGGTVELIQGRAAKGNCVSLLSPSPEGDPRFSFLLHFYTVPIPKTGTLSCTVALRPKTGSQDQEVHRTVFMRLNIISPDLSGCTSKGLVLPAVLGITFGAFLIGALLTAALWYIYSHTRSPSKREPVVAVAAPASSESSSTNHSIGSTQSTPCSTSSMA
notes: endoglin (CD105), human, wild type; EYFP-tagged with the ECFP-tagged receptors and with soluble ECFP; ECFP-tagged with the EYFP-tagged mutants; both versions together for the homodimer; also called endoglin^wt-EYFP; endoglin^wt-ECFP; source: CHO cells, transiently co-transfected (50 ng of each construct per 100 000 cells), in living cells; not shown: EYFP (acceptor) or ECFP (donor), C-terminal, …
B2: endoglin S480C, EYFP-tagged (receptor, human, UniProt P17813 26-658, looked up)
chain: ETVHCDLQPVGPERGEVTYTTSQVSKGCVAQAPNAILEVHVLFLEFPTGPSQLELTLQASKQNGTWPREVLLVLSVNSSVFLHLQALGIPLHLAYNSSLVTFQEPPGVNTTELPSFPKTQILEWAAERGPITSAAELNDPQSILLRLGQAQGSLSFCMLEASQDMGRTLEWRPRTPALVRGCHLEGVAGHKEAHILRVLPGHSAGPRTVTVKVELSCAPGDLDAVLILQGPPYVSWLIDANHNMQIWTTGEYSFKIFPEKNIRGFKLPDTPQGLLGEARMLNASIVASFVELPLASIVSLHASSCGGRLQTSPAPIQTTPPKDTCSPELLMSLIQTKCADDAMTLVLKKELVAHLKCTITGLTFWDPSCEAEDRGDKFVLRSAYSSCGMQVSASMISNEAVVNILSSSSPQRKKVHCLNMDSLSFQLGLYLSPHFLQASNTIEPGQQSFVQVRVCPSVSEFLLQLDSCHLDLGPEGGTVELIQGRAAKGNCVSLLSPSPEGDPRFSFLLHFYTVPIPKTGTLSCTVALRPKTGSQDQEVHRTVFMRLNIISPDLSGCTSKGLVLPAVLGITFGAFLIGALLTAALWYIYSHTRSPSKREPVVAVAAPASSESSSTNHSIGSTQSTPCSTSSMA
notes: endoglin (CD105), human, missense mutant S480C (found in a Scottish HHT family); site-directed mutagenesis on pCMV5-endoglin wild type, moved into pEYFP-N1; also called mutant S480C; source: CHO cells, transiently co-transfected (50 ng of each construct per 100 000 cells), in living cells; not shown: EYFP, C-terminal, kept

What was measured:
Test in all cases: FRET or BRET; microscopic FRET in living CHO cells, ECFP donor and EYFP acceptor, 50 ng of each construct per 100 000 cells, 24 h after transfection, HEPES buffered ringer solution; FRET index (FI) = FRET efficiency x area with FRET; FI<51 no interaction, 51-99 weak or false positive, >=100 interaction; at least 30 cells per sample
[1] = biological target: B2; conditions: partners not purified
[2] = biological target: B1; conditions: partners not purified
[3] = biological target: the molecule itself

| Binder | % of cells clearly FRET-positive (FRET index >=100) [1] | % of cells in FRET index group 2 (FI 51-99, weak or false positive) [1] | mean FRET index of the positive cells [1] | % of cells clearly FRET-positive (FRET index >=100) [2] | % of cells in FRET index group 2 (FI 51-99, weak or false positive) [2] | mean FRET index of the positive cells [2] | % of cells clearly FRET-positive (FRET index >=100) [3] | mean FRET index of the positive cells [3] | % of cells in FRET index group 2 (FI 51-99, weak or false positive) [3] |
| --- | --- | --- | --- | --- | --- | --- | --- | --- | --- |
| TβRII, ECFP- or EYFP-tagged (receptor, UniProt P37173 23-567, looked up, TβRII, TGF-β type II receptor; The methods name only the EYFP version; the results use an ECFP-tagged version; also called TβRII-EYFP; TGF-β type-II receptor; source: CHO cells, transiently co-transfected, in living cells) TIPPHVQKSVNNDMIVTDNNGAVKFPQLCKFCDVRFSTCDNQKSCMSNCSITSICEKPQEVCVAVWRKNDENITLETVCHDPKLPYHDFILEDAASPKCIMKEKKKPGETFFMCSCSSDECNDNIIFSEEYNTSNPDLLLVIFQVTGISLLPPLGVAISVIIIFYCYRVNRQQKLSSTWETGKTRKLMEFSEHCAIILEDDRSDISSTCANNINHNTELLPIELDTLVGKGRFAEVYKAKLKQNTSEQFETVAVKIFPYEEYASWKTEKDIFSDINLKHENILQFLTAEERKTELGKQYWLITAFHAKGNLQEYLTRHVISWEDLRKLGSSLARGIAHLHSDHTPCGRPKMPIVHRDLKSSNILVKNDLTCCLCDFGLSLRLDPTLSVDDLANSGQVGTARYMAPEVLESRMNLENVESFKQTDVYSMALVLWEMTSRCNAVGEVKDYEPPFGSKVREHPCVESMKDNVLRDRGRPEIPSFWLNHQGIQMVCETLTECWDHDPEARLTAQCVAERFSELEHLDRLSGRSCSEEKIPEDGSLNTTK | 3% | 10% | 147 FRET index | 62% | 18% | 293 FRET index |  |  |  |
| ALK5, ECFP- or EYFP-tagged (receptor, UniProt P36897 34-503, looked up, ALK5, TGF-β type I receptor; The methods name only the EYFP version; the results use an ECFP-tagged version; also called ALK5-EYFP; source: CHO cells, transiently co-transfected, in living cells) LQCFCHLCTKDNFTCVTDGLCFVSVTETTDKVIHNSMCIAEIDLIPRDRPFVCAPSSKTGSVTTTYCCNQDHCNKIELPTTVKSSPGLGPVELAAVIAGPVCFVCISLMLMVYICHNRTVIHHRVPNEEDPSLDRPFISEGTTLKDLIYDMTTSGSGSGLPLLVQRTIARTIVLQESIGKGRFGEVWRGKWRGEEVAVKIFSSREERSWFREAEIYQTVMLRHENILGFIAADNKDNGTWTQLWLVSDYHEHGSLFDYLNRYTVTVEGMIKLALSTASGLAHLHMEIVGTQGKPAIAHRDLKSKNILVKKNGTCCIADLGLAVRHDSATDTIDIAPNHRVGTKRYMAPEVLDDSINMKHFESFKRADIYAMGLVFWEIARRCSIGGIHEDYQLPYYDLVPSDPSVEEMRKVVCEQKLRPNIPNRWQSCEALRVMAKIMRECWYANGAARLTALRIKKTLSQLSQQEGIKM | 13% | 30% | 129 FRET index | 36% | 16% | 243 FRET index |  |  |  |
| B1 |  |  |  |  |  |  | 100% | 373 FRET index |  |
| B2 |  |  |  | 65% | 19% | 239 FRET index |  |  |  |
| endoglin G52V, EYFP-tagged (with an ECFP-tagged copy for the homodimer) (receptor, human, UniProt P17813 26-658, looked up, endoglin (CD105), human, HHT1 missense mutant G52V; also called mutant G52V; source: CHO cells, transiently co-transfected (50 ng of each construct per 100 000 cells), in living cells; not shown: EYFP (acceptor) or ECFP (donor, homodimer only), C-terminal, kept) ETVHCDLQPVGPERGEVTYTTSQVSKVCVAQAPNAILEVHVLFLEFPTGPSQLELTLQASKQNGTWPREVLLVLSVNSSVFLHLQALGIPLHLAYNSSLVTFQEPPGVNTTELPSFPKTQILEWAAERGPITSAAELNDPQSILLRLGQAQGSLSFCMLEASQDMGRTLEWRPRTPALVRGCHLEGVAGHKEAHILRVLPGHSAGPRTVTVKVELSCAPGDLDAVLILQGPPYVSWLIDANHNMQIWTTGEYSFKIFPEKNIRGFKLPDTPQGLLGEARMLNASIVASFVELPLASIVSLHASSCGGRLQTSPAPIQTTPPKDTCSPELLMSLIQTKCADDAMTLVLKKELVAHLKCTITGLTFWDPSCEAEDRGDKFVLRSAYSSCGMQVSASMISNEAVVNILSSSSPQRKKVHCLNMDSLSFQLGLYLSPHFLQASNTIEPGQQSFVQVRVSPSVSEFLLQLDSCHLDLGPEGGTVELIQGRAAKGNCVSLLSPSPEGDPRFSFLLHFYTVPIPKTGTLSCTVALRPKTGSQDQEVHRTVFMRLNIISPDLSGCTSKGLVLPAVLGITFGAFLIGALLTAALWYIYSHTRSPSKREPVVAVAAPASSESSSTNHSIGSTQSTPCSTSSMA |  |  |  | 51% | 27% | 222 FRET index | ≥ 75% | 204 FRET index | 15% |
